How the values were obtained:
[1] = molecular target: type I interleukin-1 receptor (UniProt P14778); assay: MST; fluorescently labeled IL-1R1 titrated with serially diluted IL-1Ra variants and IL-1β; Monolith NT.115-pico
[2] = molecular target: type I interleukin-1 receptor (UniProt P14778); assay: SPR; IL-1R1 captured on a CM5 chip via a His Capture Kit; various concentrations of IL-1Ra variants and IL-1β flowed as analytes; Biacore T200
[3] = molecular target: type I interleukin-1 receptor (UniProt P14778)
[4] = molecular target: type I interleukin-1 receptor (UniProt P14778); remark: listed apart in the source

Chain of UniProt P14778 (P14778 18-336): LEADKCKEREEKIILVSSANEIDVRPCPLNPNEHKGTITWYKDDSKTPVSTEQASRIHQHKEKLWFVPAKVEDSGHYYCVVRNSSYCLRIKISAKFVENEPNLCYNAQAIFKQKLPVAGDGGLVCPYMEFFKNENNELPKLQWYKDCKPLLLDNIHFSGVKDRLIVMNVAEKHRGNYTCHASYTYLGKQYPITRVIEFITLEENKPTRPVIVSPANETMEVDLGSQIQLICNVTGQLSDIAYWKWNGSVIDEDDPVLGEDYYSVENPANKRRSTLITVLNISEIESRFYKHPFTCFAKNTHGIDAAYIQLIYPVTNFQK

Substance | Kd [1] [nM] | Kd [2] [nM] | reduction of IL-1β mRNA in HMC-3 cells (IL-1β 1 ng/ml + hIL-1Ra 25 ng/ml, 24 h; blocks IL-1β acting on IL-1R1) compared with RD hIL-1Ra WT [3] [%] | reduction of IL-1β mRNA in HMC-3 cells (IL-1β 1 ng/ml + hIL-1Ra 25 ng/ml, 24 h; blocks IL-1β acting on IL-1R1) compared with iPT hIL-1Ra WT [3] [%] | reduction of IL-6 mRNA in HMC-3 cells (IL-1β 1 ng/ml + hIL-1Ra 25 ng/ml, 24 h; blocks IL-1β acting on IL-1R1) compared with RD hIL-1Ra WT [4] [%] | reduction of IL-6 mRNA in HMC-3 cells (IL-1β 1 ng/ml + hIL-1Ra 25 ng/ml, 24 h; blocks IL-1β acting on IL-1R1) compared with iPT hIL-1Ra WT [4] [%]
hIL-1Ra E127H (natural protein) | 4.59 | 0.256 |  |  |  | 
hIL-1Ra E127N (natural protein) | 6.06 | 0.281 |  |  |  | 
hIL-1Ra E127Q (natural protein) | 3.84 | 0.283 |  |  | 53 | 49
hIL-1Ra E127S (natural protein) | 2.45 | 0.248 |  |  |  | 

Results, then the substance that gave them:

Kd [1] [nM] | Kd [2] [nM] | reduction of IL-1β mRNA in HMC-3 cells (IL-1β 1 ng/ml + hIL-1Ra 25 ng/ml, 24 h; blocks IL-1β acting on IL-1R1) compared with RD hIL-1Ra WT [3] [%] | reduction of IL-1β mRNA in HMC-3 cells (IL-1β 1 ng/ml + hIL-1Ra 25 ng/ml, 24 h; blocks IL-1β acting on IL-1R1) compared with iPT hIL-1Ra WT [3] [%] | reduction of IL-6 mRNA in HMC-3 cells (IL-1β 1 ng/ml + hIL-1Ra 25 ng/ml, 24 h; blocks IL-1β acting on IL-1R1) compared with RD hIL-1Ra WT [4] [%] | reduction of IL-6 mRNA in HMC-3 cells (IL-1β 1 ng/ml + hIL-1Ra 25 ng/ml, 24 h; blocks IL-1β acting on IL-1R1) compared with iPT hIL-1Ra WT [4] [%] | Substance
7.52 | 0.396 |  |  |  |  | hIL-1Ra E127C (natural protein)
40.6 | 3.5 |  |  |  |  | hIL-1Ra E127D (natural protein)
5.54 | 0.41 | 35 | 32 |  |  | hIL-1Ra E127K (natural protein)
4.61 | 0.258 |  |  |  |  | hIL-1Ra E127V (natural protein)

Reference: paper PMC12712897
